# Source: US20140287419A1, “Compositions Having Dicamba Decarboxylase Activity and Methods of Use” (priority 2013, published 2014)
# Positions count from the first letter of the chain named.
# B1: 15 (protein, listed as Metarhizium anisopliae)
# chain: MAQEIAKSHETSTRFAGFAVLPMRDPEAAAKELERAVKKLGFVGALVDHKTAHGNGFCEGNEYDVLWRKAEQLAVPIYLHPSWPTEKQFQQAYAGNYSPTAAGTIGGAMFNWHSEVGHHVLRLYAAGVFDKFPKLKIIIGHFGEMIPYMLDRIREQDHRLGKTGRTFSEVYDENIWITTSGVWSLDPMRCILANTKIDHILYSVDYPFTMNERGLEWFQELEKSGLLSEEDLALIAYKNCEKLLGVKAPTQD
# B2: 108 (protein, listed as Staphylococcus aureus)
# chain: MAKSITFEEHYVIEDIQKETMNAISADPKGVPMKVMLEGLEKKTGFTNADELSHHDERIQFMNNQDVQIQVLSYGNGSPSNLVGQKAIELCQKANDQLANYIAQYPNRFVGFATLPINEPEAAAREFERCINDLGFKGALIMGRAQDGFLDQDKYDIIFKTAENLDVPIYLHPAPVNSDIYQSYYKGNYPEVTAATFACFGYGWHIDVGIHAIHLVLSGIFDRYPKLNMIIGHWGEFIPFFLERMDEALFAEHLNHSVSYYFKNSFYITPSGMLTKPQFDLVKKEVGIDRILYAADYPYIEPEKLGVFLDELGLTDEEKEKISYTNGAKLLGLSSNN
# B3: 13 (protein, listed as Metarhizium acridum)
# chain: MAHGKVALEEAFALPRLHEKTRWWASLFAVNPDKHAAEMTDITDIRINYMDKHGVGYTILSYTAPGVQDISDPKEAQALAVEINDYVAGAIKNHPDRFGAFATLSMRNPQEAATELKRCVTQYGFKGALVNDTQRAGEDDMIFYDGPEWDVFWSTVEELDVPFYLHPRNPTGSLYEKLWAKRKWLVGPPLSFAQGVSLHVLGMVTNGVFDRHPKLQVVLGHLGEHIPFDMWRINHWFEDVKKPLGLDCKKTIREYFQQNIWITTSGHFSTTTLQFCMAEVGADRILFSIDYPFECFADACDWYDGVPINLVDKAKIGRDNARRLFKLPEFKDSEKHVDA
# B4: 21 (protein, listed as Agrobacterium tumefaciens)
# chain: MAQGKVALEEHFAIPETLQDSAGFVPGDYWKELQHRLLDIQDTRLKLMDAHGIETMILSLNAPAVQAIPDRKKAIEIARRANDVLAEECARRPDRFLAFAALPLQDPDAATQELQRCVNDLGFVGALVNGFSQEGDGQTPLYYDLPQYRPFWGEVEKLDVPFYLHPRNPLPQDSRIYDGHPWLLGPTWAFAQETAVHALRLMASGLFDAHPRLNIILGHMGEGLPYMMWRIDHRNAWVKLPPRYPAKRRFVDYFNENFHITTSGNFRTQTLIDAILEIGADRILFSTDWPFENIDHASDWFNATTIAEADRVKIGRTNARRLFKLDGR
# B5: 12 (protein, listed as Zymoseptoria tritici)
# chain: MALGKVAFEEAFALPRFKERTTWWAGLFAVDPEKHTREINDINKLRIEKMDQFGVGYTLLSYTAPGVQDVWQQEEADALAREVNDHVAAEIKGHEDRLGALATLSMHDPQTASAELRRCIKDYGFKGALVNDTQRNDESGTGMIFYDGPEWDVFWSTVQELDVPFYLHPRNPTGVFMEKLWAPRKWLVGPPLSFAQGVSLHLLGMVTNGTFDRFPNLQVIIGHLGEHLPFDLWRINHWFEDIKKPLGLDCKKTIREYFNENIWITTSGHFSTPTLEYCIKEIGAERILFSIDYPFEKFEDACDWYDGVELDGPDTVKKIGRENAKKLFKLGAFKDDSA
# B6: 10 (protein, listed as Starkeya novella)
# chain: MARKIALEEHFTTPELAGKYVARPTQSDALFADIERRLADFDELRLEMMDRAEIDLMVLSVTTPGVQGVRDTGEAIRLARGANDFLAREVQKRPSRYAGFAHLAMQDAEAAATELERAVRELGFRGALINGQTNGHYLDEDQYAPFWERVQELDVPVYLHPGNMADSPAMFAHRPELGGPIWAWTAETAAHALRLVFGGTFTRFPGAKVILGHMGETLPFLLWRLDSRREFDLGEKLAPDALPSAIIKRNIAVTTSGVCDPAPLVAALQALSDDNVMFSVDYPYEDPQLASKFIETAPIGEETRAKVCHGNAERLLGL
# B7: 16 (protein, listed as Staphylococcus aureus)
# chain: MAQNNMEANQMKSITFEEHYVIEDIQKETMNAISADPKGVPMKVMLEGLEKKTGFTNADELSHHDERIQFMNNQDVQIQVLSYGNGSPSNLVGQKAIELCQKANDQLANYIAQYPNRFVGFATLPINEPETAAREFERCINDLGFKGALIMGRAQDGFLDQDKYDIIFKTAENLGVPIYLHPAPVNSDIYQSYYKGNYPEVTAATFACFGYGWHIDVGIHAIHLVLSGIFDRYPKLNMIIGHWGEFIPFFLERMDEALFAEHLNHPVSYYFKNNFYITPSGMLTKPQFDLVKKEAGIDRILYAADYPYIEPEKLGVFLDELGLTDEEKEKISYTNGAKLLGLSSNN
# B8: 19 (protein, listed as Talaromyces marneffei)
# chain: MATPIITLEEHYISSAIRDASETDHYAVFPSQIISKLNTLSTERLQDLDNGHVSLQVISHGPGAQPPYLCQAANDELASAISANPTRFAGFALLPIAEPQLAVQELERCITQHKFVGALIDNHTNGQFYDDQKFWPVFEKAQELDAPIYVHPSYPDEESGVAAHYRGNYDDRIAAALGAYGWGWHSDTALSILRLFAAGLFDTYPNIKIIIGHMGEMLPFQLERVIGIASRFGRSRGLREVWTQNIWVTTSGMFALAPLACLLQTMPIERVLYSVDYPFSANEKGFAFLEEIKKSGLIKEGEDWERFLYKNAQELLKVNV
# B9: 14 (protein, listed as Talaromyces marneffei)
# chain: MARGKVSFEEAYEIPALADKSREQAALYIAPKDLDRYLSEIKSPTGGRLDISNKNGIGYTIYSLTVPGVQGIADKAKAEKHATDVNNWIYNEIKDHRDRMGAFAALSMHDPVQAGQELERCVKKLGFHGALLNNWQHAGTDGETYIFYDHPSYDVFWQKCVELDVPVYLHPSAPSGKVFDTFFKDRRYLIGPPISFAQDVALHTMGLITNGVFDRNPKLKLILGHLGERIPQDLWRTNHWLEDVERPLADSRGDTMSRKPLLYYFKNNIYVTTSGHFSTETVKFVCDYFGADRILFSVDSPYEKIEEGAGWYDKDKDNLTKALGGPQQYLDVGRENAKKLFKLGKYHDCDA
# B10: 17 (protein)
# chain: MARGKIALEEAFEVKGMDEEIDAQAALYIAPKDVERYKRQIVSITDERLQLSDQNGIGYSILSLTVPGIQGITDKDKAEKRARDVNNYIHDQIKDHRDRLGAFAALSMHDPRQAGHELRRCVKELGFHGALLNDVQHTGEGDDDQPLFYDQPDYDEFWRVAVELDVPVYLHPAAPLRDTLIYKQSYEDRKYLVGPPQSYCNGVALHLMGIIVNGVFDRFPNLKVIVGHMGERIPFDFWRMDHWVKGVTRPLAEKNGDTVCQKEPLYYFKRNIYITTSGHFSTQNLRYLYEWLGDERMMFSVDFPYERMEHGCQWYDDDAEKIKEALGGRDGYLRVGRDNARRLFKLTKFKDCDAV
# modifications: Aspergillus niger
# B11: 9 (protein, listed as Octadecabacter antarcticus)
# chain: MATPKITFEEHFMAPGFEKHSEAFLKLIPRDQAEILTRRLGDFDGERIETMDRGGITRSIISLTGPGTQGEAVEKAVSAAQGANDFLAEKISKKPDRLGGLATLPMHDPDAAARELNRAVNDLGLQGCLVNTHTHGAYYEGTDYDPFWAEVEKLGVPFYLHPSNAYVTPHVLGGMPVLQGATWGWGVETGSHALRILFGGVFDRFPDVKLVLGHMGEALPFLRWRYDSRFGAYPMGVSLDRAPSAYFGSNILITTSGVCSHPSLIGAIGEMGADAVMFSVDYPYEDTDLAVEFIETAPLEDATRVKICHDNAARLFGMPTLAAKEGA
# B12: 11 (protein)
# chain: MALGKIALEEAFALPRFEEKTRWWASLFSVDPETHVKEITDINKLRIEHADKYGVGYQILSYTAPGVQDIWDPVEAQALAVEINDYIAEQIRDKPDRFGAFATLSMHNPQEAASELRRCVQTYGFKGALVNDTQRAGPDGDDMIFYDNASWDIFWQTCTELDVPLYLHPRNPTGTIYEKLWADRKWLVGPPLSFAQGVSLHVLGMVTNGVFDRHPNLQLIMGHLGEHVPFDMWRINHWFEDRKKLLGLAETCKKTIREYFAQNIWITTSGHFSTTTLNFCMAEVGVDRILFSIDYPFETFEDACVWFDGAELNLSDKAKIGRDNAARLFKLGAFRDYDAKVKA
# modifications: Aspergillus niger
# B13: 18 (protein, listed as Legionella pneumophila)
# chain: MAIVDFETHFITEACIDYLTQRQEVPKLVPELNGAYTMCFTPDVSLFHTSALMEELLSLNEQRLAIMDQAGVTIQVLSLTTINGIDSCPGDENKSTALAREVNDQLYSAIQKHPERFKGFASISPYDVKEGVKELERAISQLGFVGWLTHSNFGQDNYLDDKIYWPLLEAAESLNIPIYLHPNVPIMREFGKYGFALGGSALGFEFDTALCLMRMILGGVFDAFPKLKIMLGHLGETMPFLMERLDHLYRIPDLKPYRPSIQRIPSEVLRQNVYITTSGRFFVPALRYVLEVMGEDRVLFASDYPMESLLDATRFIQDSDLSNQTKQKIFSINAKNLNLI
# B14: 20 (protein, listed as Legionella pneumophila)
# chain: B13 chain with E31D, K112R, I163T, S173G, P256A
# Assay: 14C assay with IPTG-induced recombinant E. coli cells (14CO2 capture from [14C]-carboxyl-labeled dicamba)
# Settings: IPTG-induced recombinant E. coli cells; [14C]-carboxyl-labeled dicamba; 14CO2 capture
row,Molecule,Dicamba Decarboxylase Activity
1,B1,Low
2,B2,High
3,B3,No
4,B4,High
5,B5,No
6,B6,Low
7,B7,High
8,B8,High
9,B9,Low
10,B10,Low
11,B11,No
12,B12,Low
13,B13,Low
14,B14,Low

# Same assay, conditions: dicamba decarboxylation activity of the protein of the given SEQ ID NO
row,Molecule,Enzymatic Detection level
1,B1,Low
2,B2,High
3,B3,No
4,B4,High
5,B5,No
6,B6,Low
7,B7,High
8,B8,High
9,B9,Low
10,B10,Low
11,B11,No
12,B12,Low
13,B13,Low
14,B14,Low
